Assay results published in patent US20220064329A1 (Novo Nordisk, published 2022).

B1: mAb0018 (antibody, V domains shown)
VH: QITLKESGPGILKPSQTLSLTCSFSGFSLSTSGLGVGWIRQTSGKGLEWLAHIWWDDDKYYYPPLKSQLTISKDTSRNQVFLKITSVDTADTATYYCARRAFYDGYYGPMEYWGQGTSVTVSS
VL: DIVLSQSPSSLAVSVGEKVTMSCKSSQSLLYSSNQKNSLAWYQHKPGQSPKLLIYWASTRESGVPDRFTGSGSGTDFTLTISNVKAEDLAVYYCHQYYNYLLTFGPGTKLELK
notes: fully murine, hybridoma-derived; also called 8F19
B2: mAb0004 (antibody, V domains shown)
VH: QVQLKESGPGLVAPSQSLSITCTVSGFSLTDYGVSWIRQPPGKGLEWLGVIWGGGNTYNNSALKSRLSISKDNSKSQVFLKMNSLQADDTAMYFCAKHGYYGYVMDYWGQGTSVTVSS
VL: DIVMTQSHKIMSTLVGDRVSITCKASQDVDPAVAWYQQKPGQYPKLLIYWASTRHTGVPDRFTGSGSGTDFTLTISNVQSEDLADYFCQQYSKYPYTFGGGTKLEIK
notes: fully murine, hybridoma-derived; also called 11F19
B3: mAb0001 (antibody, V domains shown)
VH: EIQLQQTGPELVKPGASVKISCKASGYSFTDYIMVWMKQSQGKTLEWIGKINPYYGDISYNLKFKGKATLTVDKSSSTVYMQLNSLASEDSAVYYCARGFYYDYFDQWGQGTTLTVSS
VL: DVMVTQTPLSLPVNLGDQASISCRSSQSLVHSNGNTYLHWYLQKPGQSPKLLIYRVSDRFSGVPDRFSGSGSGTDFTLKISRVEAEDLGVYFCSQSTHVPPTFGGGTKLEIK
notes: fully murine, hybridoma-derived; also called 11F26
B4: biAb0098 (bispecific antibody, human IgG4 S228P, kappa)
heavy 1: DVQLQESGPGLVEPSQTLSLTCTVSGYSITSDSAWSWIRQFPGKKLEWMGYIQYSGSTNYNPSLKSRVTISRDTSKNQFSLKLSSVTAEDTAVYYCARSVNYYGNSFAVDYWGQGTSVTVSSASTKGPSVFPLAPCSRSTSESTAALGCLVKDYFPEPVTVSWNSGALTSGVHTFPAVLQSSGLYSLSSVVTVPSSSLGTKTYTCNVDHKPSNTKVDKRVESKYGPPCPPCPAPEFLGGPSVFLFPPKPKDTLMISRTPEVTCVVVDVSQEDPEVQFNWYVDGVEVHNAKTKPREEQFNSTYRVVSVLTVLHQDWLNGKEYKCKVSNKGLPSSIEKTISKAKGQPREPQVYTLPPSQEEMTKNQVSLTCLVKGFYPSDIAVEWESNGQPENNYKTTPPVLDSDGSFLLYSKLTVDKSRWQEGNVFSCSVMHEALHNHYTQKSLSLSLGK
light 1: EIVLTQSPATLSLSPGERATLSCRASQGISDYLHWYQQKPGEAPRLLIKYTSQPATGIPARFSGSGSGTDFTLTISSLEPEDVGVYYCQNGHSFPLTFGAGTKLELKRTVAAPSVFIFPPSDEQLKSGTASVVCLLNNFYPREAKVQWKVDNALQSGNSQESVTEQDSKDSTYSLSSTLTLSKADYEKHKVYACEVTHQGLSSPVTKSFNRGEC
heavy 2: not shown
light 2: DIVMTQTPLSSPVTLGQPASISCRSSQSLVHRNGNTYFHWLQQRPGQPPRLLIYKVSNRFSGVPDRFSGSGAGTDFTLKISRVEAEDVGVYYCSQSTHVPYTFGQGTKLEIKRTVAAPSVFIFPPSDEQLKSGTASVVCLLNNFYPREAKVQWKVDNALQSGNSQESVTEQDSKDSTYSLSSTLTLSKADYEKHKVYACEVTHQGLSSPVTKSFNRGEC
notes: Duobody, constant domain type H (IgG4): anti-FVII(a) arm mAb0874, anti-TLT-1 arm mAb1047; also called mAb0874 x mAb1047
B5: biAb0013 (bispecific antibody, human IgG4 S228P, kappa)
heavy 1: DVQLQESGPGLVEPSQTLSLTCTVSGYSITSDSAWSWIRQFPGKKLEWMGYIQYSGSTNYNPSLKSRVTISRDTSKNQFSLKLSSVTAEDTAVYYCARSVNYYGNSFAVDYWGQGTSVTVSSASTKGPSVFPLAPCSRSTSESTAALGCLVKDYFPEPVTVSWNSGALTSGVHTFPAVLQSSGLYSLSSVVTVPSSSLGTKTYTCNVDHKPSNTKVDKRVESKYGPPCPPCPAPEFLGGPSVFLFPPKPKDTLMISRTPEVTCVVVDVSQEDPEVQFNWYVDGVEVHNAKTKPREEQFNSTYRVVSVLTVLHQDWLNGKEYKCKVSNKGLPSSIEKTISKAKGQPREPQVYTLPPSQEEMTKNQVSLTCLVKGFYPSDIAVEWESNGQPENNYKTTPPVLDSDGSFLLYSKLTVDKSRWQEGNVFSCSVMHEALHNHYTQKSLSLSLGK
light 1: EIVLTQSPATLSLSPGERATLSCRASQGISDYLHWYQQKPGEAPRLLIKYTSQPATGIPARFSGSGSGTDFTLTISSLEPEDVGVYYCQNGHSFPLTFGAGTKLELKRTVAAPSVFIFPPSDEQLKSGTASVVCLLNNFYPREAKVQWKVDNALQSGNSQESVTEQDSKDSTYSLSSTLTLSKADYEKHKVYACEVTHQGLSSPVTKSFNRGEC
heavy 2: not shown
light 2: DIVMTQTPLSSPVTLGQPASISCRSSQSLVHRQGNTYFHWLQQRPGQPPRLLIYKVSNRFSGVPDRFSGSGAGTDFTLKISRVEAEDVGVYYCSQSTHVPYTFGQGTKLEIKRTVAAPSVFIFPPSDEQLKSGTASVVCLLNNFYPREAKVQWKVDNALQSGNSQESVTEQDSKDSTYSLSSTLTLSKADYEKHKVYACEVTHQGLSSPVTKSFNRGEC
notes: Duobody, constant domain type H (IgG4): anti-FVII(a) arm mAb0874, anti-TLT-1 arm mAb1076; also called mAb0874 x mAb1076
B6: biAb0018 (bispecific antibody, human IgG4 S228P, kappa)
heavy 1: DVQLQESGPGLVEPSQTLSLTCTVSGYSITSDSAWSWIRQFPGKKLEWMGYIQYSGSTNYNPSLKSRVTISRDTSKNQFSLKLSSVTAEDTAVYYCARSVNYYGNSFAVDYWGQGTSVTVSSASTKGPSVFPLAPCSRSTSESTAALGCLVKDYFPEPVTVSWNSGALTSGVHTFPAVLQSSGLYSLSSVVTVPSSSLGTKTYTCNVDHKPSNTKVDKRVESKYGPPCPPCPAPEFLGGPSVFLFPPKPKDTLMISRTPEVTCVVVDVSQEDPEVQFNWYVDGVEVHNAKTKPREEQFNSTYRVVSVLTVLHQDWLNGKEYKCKVSNKGLPSSIEKTISKAKGQPREPQVYTLPPSQEEMTKNQVSLTCLVKGFYPSDIAVEWESNGQPENNYKTTPPVLDSDGSFLLYSKLTVDKSRWQEGNVFSCSVMHEALHNHYTQKSLSLSLGK
light 1: EIVLTQSPATLSLSPGERATLSCRASQGISDYLHWYQQKPGEAPRLLIKYTSQPATGIPARFSGSGSGTDFTLTISSLEPEDVGVYYCQNGHSFPLTFGAGTKLELKRTVAAPSVFIFPPSDEQLKSGTASVVCLLNNFYPREAKVQWKVDNALQSGNSQESVTEQDSKDSTYSLSSTLTLSKADYEKHKVYACEVTHQGLSSPVTKSFNRGEC
heavy 2: not shown
light 2: DIVMTQTPLSSPVTLGQPASISCRSSQSLVHRPGNTYFHWLQQRPGQPPRLLIYKVSNRFSGVPDRFSGSGAGTDFTLKISRVEAEDVGVYYCSQSTHVPYTFGQGTKLEIKRTVAAPSVFIFPPSDEQLKSGTASVVCLLNNFYPREAKVQWKVDNALQSGNSQESVTEQDSKDSTYSLSSTLTLSKADYEKHKVYACEVTHQGLSSPVTKSFNRGEC
notes: Duobody, constant domain type H (IgG4): anti-FVII(a) arm mAb0874, anti-TLT-1 arm mAb1038; also called mAb0874 x mAb1038
B7: biAb0093 (bispecific antibody, human IgG4 S228P, kappa)
heavy 1: DVQLQESGPGLVEPSQTLSLTCTVSGYSITSDSAWSWIRQFPGKKLEWMGYIQYSGSTNYNPSLKSRVTISRDTSKNQFSLKLSSVTAEDTAVYYCARSVNYYGNSFAVDYWGQGTSVTVSSASTKGPSVFPLAPCSRSTSESTAALGCLVKDYFPEPVTVSWNSGALTSGVHTFPAVLQSSGLYSLSSVVTVPSSSLGTKTYTCNVDHKPSNTKVDKRVESKYGPPCPPCPAPEFLGGPSVFLFPPKPKDTLMISRTPEVTCVVVDVSQEDPEVQFNWYVDGVEVHNAKTKPREEQFNSTYRVVSVLTVLHQDWLNGKEYKCKVSNKGLPSSIEKTISKAKGQPREPQVYTLPPSQEEMTKNQVSLTCLVKGFYPSDIAVEWESNGQPENNYKTTPPVLDSDGSFLLYSKLTVDKSRWQEGNVFSCSVMHEALHNHYTQKSLSLSLGK
light 1: EIVLTQSPATLSLSPGERATLSCRASQGISDYLHWYQQKPGEAPRLLIKYTSQPATGIPARFSGSGSGTDFTLTISSLEPEDVGVYYCQNGHSFPLTFGAGTKLELKRTVAAPSVFIFPPSDEQLKSGTASVVCLLNNFYPREAKVQWKVDNALQSGNSQESVTEQDSKDSTYSLSSTLTLSKADYEKHKVYACEVTHQGLSSPVTKSFNRGEC
heavy 2: not shown
light 2: DIVMTQTPLSSPVTLGQPASISCRSSQSLVHRNGNTYFHWLQQRPGQPPRLLIYKVSNRFSGVPDRFSGSGAGTDFTLKISRVEAEDVGVYYCSQSTHVPYTFGQGTKLEIKRTVAAPSVFIFPPSDEQLKSGTASVVCLLNNFYPREAKVQWKVDNALQSGNSQESVTEQDSKDSTYSLSSTLTLSKADYEKHKVYACEVTHQGLSSPVTKSFNRGEC
notes: Duobody, constant domain type H (IgG4): anti-FVII(a) arm mAb0874, anti-TLT-1 arm mAb1049; also called mAb0874 x mAb1049

Tests used:
[1] = target: T1, recombinant human activated Factor VII (FVIIa) (human, UniProt P08709 61-212; P08709 213-466, Gla domain: ten glutamate residues may be gamma-carboxylated); assay: cell-based or functional assay
T1 sequence 1: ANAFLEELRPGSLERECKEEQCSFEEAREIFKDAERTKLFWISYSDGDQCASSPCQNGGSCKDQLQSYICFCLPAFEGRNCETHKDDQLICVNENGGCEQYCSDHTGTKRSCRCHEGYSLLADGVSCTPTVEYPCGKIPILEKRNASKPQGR
T1 sequence 2: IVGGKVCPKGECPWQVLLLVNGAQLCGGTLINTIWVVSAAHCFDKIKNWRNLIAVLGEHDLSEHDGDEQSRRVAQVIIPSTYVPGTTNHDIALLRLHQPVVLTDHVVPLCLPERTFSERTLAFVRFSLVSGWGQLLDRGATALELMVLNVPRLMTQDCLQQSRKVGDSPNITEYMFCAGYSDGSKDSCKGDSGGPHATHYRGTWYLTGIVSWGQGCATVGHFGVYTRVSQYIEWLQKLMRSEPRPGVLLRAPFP

[2] = target: T1, recombinant human activated Factor VII …; assay: SPR (Biacore T200), antibody captured on anti-murine IgG, FVIIa injected at 5-135 nM, 1:1 model
Experimental: Anti-murine IgG (by GE Healthcare) was immobilised on a CM4 sensor chip using standard amine coupling chemistry kit (both supplied by GE Healthcare). […] The running buffer was prepared by diluting 10-fold the 10×HBS-P buffer (supplied by GE Healthcare) and supplemented with 1 mg/ml BSA and 5 mM CaCl₂) to give 10 mM HEPES, 150 mM NaCl, 0.05% v/v Polysorbate 20(P20), pH 7.4, 5 mM CaCl₂), 1 mg/ml bovine serum albumin (BSA). […] Regeneration of the chip was achieved using regeneration buffer consisting of 10 mM Gly-HCl pH 1.7 (supplied by GE Healthcare). Binding data were analysed according to a 1:1 model using BiaEvaluation 4.1 supplied by the manufacturer (Biacore AB, Uppsala, Sweden).

[3] = target: T2, recombinant human activated FVII (FVIIa) (human, UniProt P08709 61-212; P08709 213-466, ten glutamate residues of the Gla domain may be gamma-carboxylated); assay: cell-based or functional assay
T2 sequence 1: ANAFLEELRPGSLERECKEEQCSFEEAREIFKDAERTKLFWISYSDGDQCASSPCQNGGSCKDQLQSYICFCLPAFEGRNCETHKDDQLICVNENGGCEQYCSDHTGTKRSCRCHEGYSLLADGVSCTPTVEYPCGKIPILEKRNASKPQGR
T2 sequence 2: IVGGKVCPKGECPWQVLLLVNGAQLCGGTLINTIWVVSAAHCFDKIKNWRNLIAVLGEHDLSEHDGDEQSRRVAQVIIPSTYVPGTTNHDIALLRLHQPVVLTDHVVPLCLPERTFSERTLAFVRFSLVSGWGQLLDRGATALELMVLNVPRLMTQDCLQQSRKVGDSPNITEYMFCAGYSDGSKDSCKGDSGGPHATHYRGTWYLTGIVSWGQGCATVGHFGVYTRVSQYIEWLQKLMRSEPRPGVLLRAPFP

[4] = target: T3, sTLT1 (SEQ ID No: 3 with six histidine residues added at the C-terminus) (human, UniProt Q86YW5 16-162); assay: dissociation constant listed with the stimulatory activities; value of the anti-TLT-1 arm
T3 construct: Soluble TLT-1 used in SPR
T3 sequence: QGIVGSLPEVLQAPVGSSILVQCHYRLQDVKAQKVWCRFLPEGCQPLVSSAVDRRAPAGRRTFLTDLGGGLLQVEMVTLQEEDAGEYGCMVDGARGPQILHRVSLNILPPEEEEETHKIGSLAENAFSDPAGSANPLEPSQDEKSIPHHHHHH

[5] = target: T2, recombinant human activated FVII (FVIIa); assay: dissociation constant listed with the stimulatory activities; method not given

Binder	AT inhibition (kinh %) [1] [%]	TGT activity (% FVIIa) [1] [% FVIIa]	Kd [2] [nM]	Stimulation (fold): FXa generated by FVIIa with lipidated TLT-1 and 100 nM biAb, relative to free FVIIa [3] [fold]	Kd [4] [nM]	Kd [5] [nM]
B1	525	141	9.3			
B2	24	75	0.16			
B3	82	109	0.17			
B4				15.3	75	16.2
B5				16	2.9	16.2
B6				12.8	19	16.2
B7				9.6	320	16.2
